Data from patent publication US20240293512A1 (HANMI PHARM, published 2024).
Bridge positions count the residues as written; N and C are the ends. Square brackets hold non-standard residues; d marks the D form. Ends that are not written are not given here. * marks the point of attachment. Acetyl(2-(4-imidazolyl)) = O=C(Cc1c[nH]cn1)*; Aib = CC(C)(N)C(=O)O

T1: human GIP receptor (human, UniProt P48546 22-466)
T1 sequence (looked up): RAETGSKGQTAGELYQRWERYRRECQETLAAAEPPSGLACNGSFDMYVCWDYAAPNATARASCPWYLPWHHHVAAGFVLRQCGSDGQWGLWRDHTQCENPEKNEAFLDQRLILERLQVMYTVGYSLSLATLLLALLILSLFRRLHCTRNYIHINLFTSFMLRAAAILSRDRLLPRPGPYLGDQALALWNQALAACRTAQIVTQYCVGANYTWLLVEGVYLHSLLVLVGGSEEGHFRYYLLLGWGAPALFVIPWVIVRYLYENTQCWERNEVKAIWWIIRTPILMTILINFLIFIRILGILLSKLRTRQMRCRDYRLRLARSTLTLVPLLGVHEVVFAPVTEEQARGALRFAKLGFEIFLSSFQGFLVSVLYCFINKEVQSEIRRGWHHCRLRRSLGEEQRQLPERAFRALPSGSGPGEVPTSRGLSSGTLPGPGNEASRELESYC


Tests used:
Test in all cases: cell-based or functional assay
human GLP-1 receptor = human GLP-1 receptor (human, UniProt P43220 24-463)
human GIP receptor = biological target: T1, human GIP receptor
human GCG receptor = human GCG receptor (human, UniProt P47871 26-477)
Sequence of human GCG receptor (P47871 26-477): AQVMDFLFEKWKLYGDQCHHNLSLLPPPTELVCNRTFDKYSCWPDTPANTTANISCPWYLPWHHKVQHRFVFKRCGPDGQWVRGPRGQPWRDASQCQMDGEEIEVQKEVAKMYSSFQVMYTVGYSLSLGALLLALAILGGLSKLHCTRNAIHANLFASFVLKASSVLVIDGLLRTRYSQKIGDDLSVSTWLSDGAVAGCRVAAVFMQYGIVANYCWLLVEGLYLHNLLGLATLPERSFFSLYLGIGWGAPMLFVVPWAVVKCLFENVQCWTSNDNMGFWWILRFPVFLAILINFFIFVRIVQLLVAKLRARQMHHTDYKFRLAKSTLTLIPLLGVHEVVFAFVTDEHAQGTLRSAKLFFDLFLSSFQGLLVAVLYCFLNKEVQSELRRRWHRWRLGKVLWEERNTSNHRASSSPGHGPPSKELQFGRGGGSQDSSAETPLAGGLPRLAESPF

Row | Binder | In vitro activity compared with native peptide (%) vs GLP-1 (cAMP EC50) (human GLP-1 receptor) | In vitro activity compared with native peptide (%) vs GIP (cAMP EC50) (human GIP receptor) | In vitro activity compared with native peptide (%) vs Glucagon (cAMP EC50) (human GCG receptor)
1 | Y[Aib]QGTFTSDYSKYLDECAAKEFVQWLLDHHPSSGQPPPS (bridge 16-20) [triple agonist of SEQ ID NO: 64] | 64.6% | 92.9% | 60.1%
2 | Y[Aib]QGTFTSDYSKYLDEKRAKDFVQWLLDHHPSSGQPPPSC (bridge 16-20) [triple agonist of SEQ ID NO: 76] | 10.3% | 11.7% | 47.6%
3 | {Acetyl(2-(4-imidazolyl))}-[Aib]QGTFTSDYSKYLDECRAKEFVQWLLDHHPSSGQPPPS (bridge 15-19) [triple agonist of SEQ ID NO: 73] | 22.6% | 3% | 5.4%
4 | {Acetyl(2-(4-imidazolyl))}-[Aib]QGTFTSDYSIAMDEIACKDFVNWLLNTK (bridge 15-19) [triple agonist of SEQ ID NO: 61] | 59.8% | 2.8% | < 0.1%
5 | Y[Aib]QGTFTSDYSKCLDEKRAKDFVQWLLDHHPSSGQPPPS (bridge 16-20) [triple agonist of SEQ ID NO: 70] | 15.1% | 64.4% | 71.3%
6 | Y[Aib]QGTFTSDYSKCLDERAAKEFVQWLLDHHPSSGQPPPS (bridge 16-20) [triple agonist of SEQ ID NO: 69] | 24.3% | 62.8% | 9.6%
7 | {Acetyl(2-(4-imidazolyl))}-[Aib]QGTFTSDYSKCLDEKRAKEFVQWLLDHHPSSGQPPPS (bridge 15-19) [triple agonist of SEQ ID NO: 74] | 12.9% | 1% | 0.9%
8 | H[Aib]EGTFTSDYSIAMDEIHQKDFVNWLLAQKC (bridge 16-20) [triple agonist of SEQ ID NO: 79] | 41.5% | 1.4% | 4.9%
9 | Y[Aib]QGTFTSDYSKYLDERACKDFVQWLLDHHPSSGQPPPS (bridge 16-20) [triple agonist of SEQ ID NO: 71] | 90.1% | 94.7% | 12.7%
10 | {Acetyl(2-(4-imidazolyl))}-[Aib]QGTFTSDKSKYLDERAAQDFVQWLLDGGPSSGAPPPS [triple agonist of SEQ ID NO: 62] | 5.2% | < 0.1% | < 0.1%
11 | H[Aib]EGTFTSDYSIAMDEIHQKDFVDWLLAEKC (bridge 16-20) [triple agonist of SEQ ID NO: 80] | 8.1% | 0.1% | 0%
12 | Y[Aib]QGTFTSDYSKYLDEKAAKDFVQWLLDHHPSSGQPPPSC (bridge 16-20) [triple agonist of SEQ ID NO: 77] | 38.7% | 35.5% | 12.2%
13 | H[Aib]QGTFTSDYSKYLDEKRQKEFVQWLLDTKC (bridge 16-20) [triple agonist of SEQ ID NO: 78] | 51% | 0.12% | 14%
14 | Y[Aib]QGTFTSDYSKYLDEKAAKEFVQWLLDHHPSSGQPPPSC (bridge 16-20) [triple agonist of SEQ ID NO: 75] | 35.1% | 18% | 8.5%
15 | [Acetyl(2-(4-imidazolyl))][Aib]QGTFTSDYSKYLDEKRQKEFVQWLLNTC (bridge 16-20) [triple agonist of SEQ ID NO: 81] | 7.8% | < 0.1% | 0.3%
16 | H[Aib]QGTFTSDVSKYLDGQAAKEFVAWLLKGC [triple agonist of SEQ ID NO: 7] | 13.7% | < 0.1% | < 0.1%
17 | [Acetyl(2-(4-imidazolyl))][Aib]EGTFTSDYSIAMDEIHQKDFVNWLLAQC (bridge 16-20) [triple agonist of SEQ ID NO: 83] | 47.3% | 0.4% | 1.3%
18 | H[Aib]QGTFTSDVSKYLDGQAAQEFVAWLLKGC [triple agonist of SEQ ID NO: 8] | 14.2% | < 0.1% | 0.1%
19 | Y[Aib]QGTFTSDYSKYLDECRAKDFVQWLLDHHPSSGQPPPS (bridge 16-20) [triple agonist of SEQ ID NO: 66] | 15.8% | 17.2% | 172%
20 | {Acetyl(2-(4-imidazolyl))}-[Aib]QGTFTSDCSKYLDERAAQDFVQWLLDGGPSSGAPPPS [triple agonist of SEQ ID NO: 63] | 15.3% | < 0.1% | < 0.1%
21 | H[Aib]QGTFTSDYSKCLDEKRAKEFVQWLLDHHPSSGQPPPS (bridge 16-20) [triple agonist of SEQ ID NO: 65] | 95.4% | 11.6% | 25.2%
22 | {Acetyl(2-(4-imidazolyl))}-[Aib]QGTFTSDYSICMDEKHQKDFVNWLLNTK (bridge 15-19) [triple agonist of SEQ ID NO: 59] | 40.3% | 4% | < 0.1%
23 | {Acetyl(2-(4-imidazolyl))}-[Aib]QGTFTSDYSIAMDEKHCKDFVNWLLNTK (bridge 15-19) [triple agonist of SEQ ID NO: 60] | 106% | 8.2% | < 0.1%
24 | Y[Aib]QGTFTSDYSKCLDEKAAKEFVQWLLDHHPSSGQPPPS (bridge 16-20) [triple agonist of SEQ ID NO: 68] | 27.9% | 107% | 8.8%
25 | Y[Aib]QGTFTSDCSKYLDERAAKDFVQWLLDHHPSSGQPPPS (bridge 16-20) [triple agonist of SEQ ID NO: 72] | 11.5% | 1.6% | 1%
26 | Y[Aib]QGTFTSDYSKYLDECAAKDFVQWLLDHHPSSGQPPPS (bridge (positions not given here); ends not checked; also: ring formation between two underlined residues) [triple agonist of SEQ ID NO: 67] | 28.5% | 39.8% | 46.2%
27 | [Acetyl(2-(4-imidazolyl))][Aib]QGTFTSDYSKYLDEKRQKEFVQWLLDTC (bridge 16-20) [triple agonist of SEQ ID NO: 82] | 9.5% | < 0.1% | 1.1%
